From US20110038881A1 (published 2011)

What was measured:
HLA-DRB4*0101 = HLA-DRB4*0101 (human); assay: competition binding
HLA-DRB1*1501 = HLA-DRB1*1501 (human); assay: competition binding
HLA-DRB1*0101 [1] = target: HLA-DRB1*0101 (human); assay: competition binding
HLA-DRB1*0401 = HLA-DRB1*0401 (human); assay: competition binding
HLA-DRB1*1101 = HLA-DRB1*1101 (human); assay: competition binding
HLA-DRB1*0301 = HLA-DRB1*0301 (human); assay: competition binding
HLA-DRB1*0701 = HLA-DRB1*0701 (human); assay: competition binding
HLA-DRB1*1301 = HLA-DRB1*1301 (human); assay: competition binding
HLA-DRB3*0101 = HLA-DRB3*0101 (human); assay: competition binding
HLA-DRB5*0101 = HLA-DRB5*0101 (human); assay: competition binding
HLA-DRB1*0101 [2] = target: HLA-DRB1*0101 (human); assay: competition

Binder	IC50 (HLA-DRB4*0101)	IC50 (HLA-DRB1*1501)	IC50 (HLA-DRB1*0101 [1])	IC50 (HLA-DRB1*0401)	IC50 (HLA-DRB1*1101)	IC50 (HLA-DRB1*0301)	IC50 (HLA-DRB1*0701)	IC50 (HLA-DRB1*1301)	IC50 (HLA-DRB3*0101)	IC50 (HLA-DRB5*0101)	IC50 (HLA-DRB1*0101 [2])
TQFVRFDSDAASQRM [peptide p7 (residues 31-45 of HLA-A2)]	2.18 µM	0.374 µM	0.122 µM	0.354 µM	4 µM	0.164 µM	0.786 µM	> 100 µM	0.456 µM	1.55 µM	
WRFLRGYHQYAYDGK [peptide p21 (residues 107-121 of HLA-A2)]											0.001 µM
